Legend:
[1] = target: UbcH7 K96S (UniProt P68036 1-154, K96S); assay: ITC
[2] = target: UbcH7 wild type (UniProt P68036 1-154); assay: ITC

- Kd [1]: 15.7 µM
- Kd [2]: 0.965 µM
B1: HHARI^ΔHG (protein)
chain: MDSDEGYNYEFDEDEECSEEDSGAEEEEDEDDDEPDDDTLDLGEVELVEPGLGVGGERDGLLCGETGGGGGSALGPGGGGGGGGGGGGGGPGHEQEEDYRYEVLTAEQILQHMVECIREVNEVIQNPATITRILLSHFNWDKEKLMERYFDGNLEKLFAECHVINPSKKSRTRQMNTRSSAQDMPCQICYLNYPNSYFTGLECGHKFCMQCWSEYLTTKIMEEGMGQTISCPACDILVDDNTVMRLITDSKVKLKYQHLITNSFVECNRLLKWCPAPDCHHVVKVQYPDAKPVRCKCGRQFCFNCGENWHDPVKCKWLKKWIKKCDDDSETSNWIAANTKECPKCHVTIEKDGGCNHMVCRNQNCKAEFCWVCLGPWEPHGSAWYNCNRYNEDDAKAA
